Results: patent CN113521276A

Biological target: 人IFNAR1 on cells (HEK Blue IFNα/β cells, Daudi cells, human whole blood) (human) (UniProt P17181)
Assay: cell-based or functional assay

人IFNAR1 on cells (HEK Blue IFNα/β cells, Daudi cells, human whole blood) (human), sequence (P17181 28-557): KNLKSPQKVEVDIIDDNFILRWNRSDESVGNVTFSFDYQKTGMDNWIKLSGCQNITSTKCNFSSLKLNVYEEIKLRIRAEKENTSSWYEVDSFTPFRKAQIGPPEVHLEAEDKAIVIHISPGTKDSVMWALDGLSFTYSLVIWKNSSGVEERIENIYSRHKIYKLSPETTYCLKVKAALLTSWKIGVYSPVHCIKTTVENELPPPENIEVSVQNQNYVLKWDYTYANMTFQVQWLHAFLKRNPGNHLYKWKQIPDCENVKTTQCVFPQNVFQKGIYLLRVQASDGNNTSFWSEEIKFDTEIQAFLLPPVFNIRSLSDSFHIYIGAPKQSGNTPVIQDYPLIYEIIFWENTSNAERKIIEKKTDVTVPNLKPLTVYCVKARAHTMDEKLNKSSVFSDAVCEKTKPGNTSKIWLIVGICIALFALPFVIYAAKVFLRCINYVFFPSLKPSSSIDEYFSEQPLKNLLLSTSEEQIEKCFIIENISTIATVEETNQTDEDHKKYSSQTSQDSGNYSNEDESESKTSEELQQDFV

## Anifrolumab (antibody)
  抑制干扰素诱导的Daudi细胞增殖活性 (0.8ng/ml IFNα.2b, CellTiter-Glo): 31.7 ng/mL
  抑制干扰素诱导的HEK Blue IFNα/β细胞中STAT1/2磷酸化活性 (0.2ng/ml IFNα.2b, QUANTI-Blue OD630nm): 4.43 ng/mL
  抑制干扰素诱导的全血释放CXCL10/IP10活性 (8ng/ml IFNα.2b, 40ng/ml TNF-α, sandwich ELISA): 562 ng/mL
